This is an account of results in the nanobody polyreactivity screen of Harvey et al. (2022).

The nature of the data set: yeast display, Sf9 membrane polyspecificity reagent, FACS + sequencing; frameworks hold sequencing errors. The essentials:
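A nanobody's polyreactivity label depends on the gate it was sorted from. Yeast display cells were stained with 10% biotinylated, detergent-solubilized Sf9 membrane reagent for 1 hour at 4 °C, enriched on streptavidin microbeads and sorted by FACS. The low and high (top ~1%) gates were set on anti-HA fluorescence for expression and streptavidin fluorescence for reagent binding.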
Regarding “QVQLVESGGGLVQAGGSLRLSCAASGSTFVRYAMGWYRQAPGKERELVAAISGGGSTSYADSVKGRFTISRDNAKNTVYLQMNSLKPEDTAVYYCAAEKYRWENDAYQYYTFDYWGQGTQVTVSS”, the “polyreactivity (PSR sort gate)” value is “low polyreactivity”.
To “QVQLVESGGGLVQAGGSLRLSCAASGSTFVRYAMGWYRQAPGKERELVAAISKRGGSTYYADSVKGRFTISRDNAKNTVYLQMNSLKPEDTAVYYCAAVPLSSRQYDYWGQGTQVTVSS” belongs “high polyreactivity”; to “QVQLVESGGGLVQAGGSLRLSCAASGSTFVRYPMGWYRPAPGKERELVAGISRVGNTYYADSVKGRFTISRDNAKNTVYLQMNSLKPEDTAVYYCAARSSRWDGYDYWGQGTQVTVSS”, “high polyreactivity”.
For “QVQLVESGGGLVQAGGSLRLSCAASGSTFVSNAMGWYRQAPGKEREFVAAISGSGGSTYYADSVKGRFTISRDNAMNTVYLQMNSLKPEVTAVYYCATAGRYGRYRTYPYRSKYDYWGQGTQVTVSS”, the “polyreactivity (PSR sort gate)” value is “high polyreactivity”.
To “QVQLVESGGGLVQAGGSLRLSCAASGSTFVSNAMGWYRQAPGKESELVAAISSSGGRTSYADSVKGRFTISRDHANNTVYLQMNSLKPEDTAVYYCNTLVVPYTDFKTSYNVDYWGQGTQVTVSS” belongs “low polyreactivity”; to “QVQLVESGGGLVQAGGSLRLSCAASGSTFVSYAMGWYRQAPGKERELVAGISWSGTRTYYADSVKGRFTISRDNAKNTVYLQMNSLKPEDTAVYYFNAVYKYNYRTLDYWGQGTQVTVSS”, “high polyreactivity”.
The result for “QVQLVESGGGLVQAGGSLRLSCAASGSTFVSYDMGWYRQAPGKERELVAAIDWSGGNTDYADSVKGRFTISRDNAKNTVYLQMNSLKPEDNAVYYCAVEKFFRAEYDHWGQGTQVTVSS” reads “low polyreactivity”; that for “QVQLVESGGGLVQAGGSLRLSCAASGSTFVTNDMGWYRQAPGKERELVAAISSGTSTNYADSVKGRFTISRDNAKNTVYLQMNSLKPEDTAVYYCAADSLKRYDYWGQGTQVTVSS”, “low polyreactivity”.
The result for “QVQLVESGGGLVQAGGSLRLSCAASGSTFVTYAMGWYRQAPGKEREFVAAISTTGTGRTYYADSVKGRFTISRDNAKNTVYLQMNSLKPEDTAVYYCAADLYGTYDYWGQGTQVTVSS” reads “low polyreactivity”; that for “QVQLVESGGGLVQAGGSLRLSCAASGSTFVTYAMGWYRQAPGKERELVASISRGGSTKYADSVKGRFTISRDNAKNTVYLQMNSLKPEDTAVYYCAAKAKNYRLGPFDYWGQGTQVTVSS”, “low polyreactivity”; that for “QVQLVESGGGLVQAGGSLRLSCAASGSTFVTYARGWYRQAPGKERELVAAISRRAGRTYYADSVKGRFTISRDNAQNTVSLQMNSLKPEDTAVYYCAKQAYEAFYTGDDYDYWGQGTKVTVSS”, “high polyreactivity”.
Turning to “QVQLVESGGGLVQAGGSLRLSCAASGSTFVVNAMGWYRPAQGKERELVAAISRSGTSTYYADSVKGRFTISRDNAKKTVYLQMNSLKPEDSAVYYCNAVGSYYPPDYWGQGTQVTVSS”, the “polyreactivity (PSR sort gate)” value was “high polyreactivity”.
As for “QVQLVESGGGLVQAGGSLRLSCAASGSTFVVNAMGWYRQAPGKERELVAAIDGSDGSTYYADSVKGRFTISRDNAKNTVYLQMNSLKPEDTAVYYCAAEVLGRPDVENDYWGQGTQVTVSS”, the “polyreactivity (PSR sort gate)” value is recorded as “low polyreactivity”.
As to “QVQLVESGGGLVQAGGSLRLSCAASGSTFVVNAMGWYRQAPGKERELVAAITQSGGSTFYADSVKGRFTISRDNAKNTVYFQMNSLKPEDTAVYYWGQGTQVTVSS”, the “polyreactivity (PSR sort gate)” value was “low polyreactivity”.
Turning to “QVQLVESGGGLVQAGGSLRLSCAASGSTFVVNAMGWYSQAPGKERELVAAIDGSDGSTYYADSVKGRFTISRDNAKNTVYLQMNSLKPEDTAVYYCAAEVLGRPDVENDYWGQGTHVTVSS”, the “polyreactivity (PSR sort gate)” value was “low polyreactivity”.
Consider “QVQLVESGGGLVQAGGSLRLSCAASGSTFVWNAMGWYRQAPGKERELVAAITSSGGSTYYADSVKGRFTISRDNAKNTVYLQMNSLKPEDTAVYYCAATGVNYRGLLGVAWGNNYWGQGTQVTVSS”, for which the “polyreactivity (PSR sort gate)” value was “low polyreactivity”.
For the sequence “QVQLVESGGGLVQAGGSLRLSCAASGSTFVWYAMGWYRQAPGKEREFVATISWSDGSTYYADSVKGRFTISRDNAKNTVYLQMNSLKPEDTAVYYCASDVDRFFTYKYDYWGQGTQVTVSS”, the “polyreactivity (PSR sort gate)” value is on record as “low polyreactivity”.
The result for “QVQLVESGGGLVQAGGSLRLSCAASGSTFVWYAMVWYRQAPGKEREFVATISWSDGSTYYADSVKGRFTISRDNAKNTVYLLMNSLKPEVTAVYYCASDVDRFFSYKYDYWGQGTQVTVSS” reads “low polyreactivity”.
The result for “QVQLVESGGGLVQAGGSLRLSCAASGSTFVYNAMGSYRQAPGKEREFVAAISGSGGSTYYADSVKGRFTISRDNAKNTVYLQMNSLKPEDTAVYYCATAGRYGLYRTYPYRSKYDYWGQGTQVTVSS” reads “high polyreactivity”; that for “QVQLVESGGGLVQAGGSLRLSCAASGSTFVYNAMGWYRPAPGKERELVAAISARTGRTYYADSVKGRFTISRDNAKNTVYLQMNSLKPEDTAVYYCAAGLIVGRFLRYDYWGQGTQVTVSS”, “high polyreactivity”.
To “QVQLVESGGGLVQAGGSLRLSCAASGSTFVYNAMGWYRQAPGKERELVAAISARTGRTYYADSVKGRFTISRDNAKNTVYLQMNSLKPEDTAVYYCARRYYTGYKNLPYGYWGQGTQVTVSS” belongs “high polyreactivity”.
Turning to “QVQLVESGGGLVQAGGSLRLSCAASGSTFVYNTMGWYTQAPGKERELVAGIDWSGGRTFYADSVKGRFTISRDNAKNTVYLQMNSLKPEDTAVYYCAKRLRVYRPWTYNYWGQGTQVTVSS”, the “polyreactivity (PSR sort gate)” value was “high polyreactivity”.
Regarding “QVQLVESGGGLVQAGGSLRLSCAASGSTFVYNVMGWYRQAPGKERELVAAITSCVRTYYADSVKGRFTISRDNAKNTVYLQMNSLKPEDTAVYYCAARGYYSVVEYYYWGQGTQVTVSS”, the “polyreactivity (PSR sort gate)” value is on record as “high polyreactivity”.
The result for “QVQLVESGGGLVQAGGSLRLSCAASGSTFVYYAMGWYRQAPGKERELGAAITASGGGTYYADSVKGRFTISRDNAKNTVYLQMNSLKPEDTAVYYCNRGYDYWGQGTQVTVSS” reads “low polyreactivity”.
In the case of “QVQLVESGGGLVQAGGSLRLSCAASGSTFVYYAMGWYRQAPGKERELVADISWSGGDTYYADSVKGRFTISRDNAKNTVYFQMNSLKPEDTAVYYCAAEWSTPSYVGFADGFEYWGQGTQVTVSS”, the “polyreactivity (PSR sort gate)” value is reported as “low polyreactivity”.
The result for “QVQLVESGGGLVQAGGSLRLSCAASGSTFVYYGMGWYRQAPGKERELVAAITDIGDSTNYADSVKGRFTISRDNAKNTVYLQMNSLKPEDTAVYYCAASGRSVPYYGSPRNDYWGQGTQVTVSS” reads “low polyreactivity”; that for “QVQLVESGGGLVQAGGSLRLSCAASGSTFWANAMGWYRQAPGKERELVAAITSTGITYYADSVKGRFTISRDNAKNTVYLQMNSLKPEDTAVYYCAADGYRYSVYLIRNPMDYWGQGTQVTVSS”, “low polyreactivity”; that for “QVQLVESGGGLVQAGGSLRLSCAASGSTFWAYAMGWYRQAPGKERELVAAITTGGGRTFYADSVKGRFTISRDNAKNTVYLQMNSLKPEDTAVYYCAAVSQSYRMYYWGEGTQVTVSS”, “low polyreactivity”.
For the sequence “QVQLVESGGGLVQAGGSLRLSCAASGSTFWAYVMGWYRQAPGKERELVAAISKSGVRTHYADSVKGRFTISRDNAKNTVYLQMNSLKPEDTAVYYCAAGGVGNLDDYWGQVTQVTVSS”, the “polyreactivity (PSR sort gate)” value is recorded as “high polyreactivity”.
As to “QVQLVESGGGLVQAGGSLRLSCAASGSTFWFNAMGWYRQAPGKERELVAISGSVGSTYADSVKGRFTISRDNAKNTVYLQMNSLKPEDTAVYYCNADSVWYRNPWSFSPRYNYWGQGTQVTVSS”, the “polyreactivity (PSR sort gate)” value is listed as “low polyreactivity”.
The result for “QVQLVESGGGLVQAGGSLRLSCAASGSTFWFYAMGWYRQAPGKERELVAAISSSGTNTYYADSVKGRFTISRDNAKNTVYLQMNSLKPEDTAVCYCAAQYRGSYRTTYDYWGQCTQVTVSS” reads “low polyreactivity”; that for “QVQLVESGGGLVQAGGSLRLSCAASGSTFWGNAMGWYRQAPGKERELVAAISTSDTSTYYADSVKGRFTISRDNAKNTVYLQMNSLKPEDTAVYYCAAEWYYGEKYDYWVQGTQVTVSS”, “low polyreactivity”; that for “QVQLVESGGGLVQAGGSLRLSCAASGSTFWGYALGWYRQAPGKERELVASIRRGASTTYADSVKGRFTISRDNAKNTVYLQMNSLKPEDSAVYYCAKPGYFRSHDYWGQGTQVTVSS”, “low polyreactivity”.
The result for “QVQLVESGGGLVQAGGSLRLSCAASGSTFWGYVMGWYRQAPGKERELVAAITGSGGSTYYADSVKGRFTISRDNAKNTVYLQMNSLKPEDTAVYYCAAAWSKSTSRRYGYWGQGTQVTVSS” reads “low polyreactivity”.
“QVQLVESGGGLVQAGGSLRLSCAASGSTFWIYAMGWYRQAPGKERELVAAISWSTGRTYYADSVKGRFTISRDNAKNTVYLQMNSLKPEDTAVYYCNAGPQHNTLKLFYYWGQGTQVTVSS”: the “polyreactivity (PSR sort gate)” value is recorded as “low polyreactivity”.
To “QVQLVESGGGLVQAGGSLRLSCAASGSTFWKYAMGWYRQAPGKERELVAAINTSGGRTYYADSVKGRCTISRDNAKNTVYLQMNSLKPEDTAVYYCNARQGITYKDGRSIKYDYWGQGTQVTGSS” belongs “high polyreactivity”; to “QVQLVESGGGLVQAGGSLRLSCAASGSTFWKYAMGWYRQAPGKERELVAAITRNGGRTFYADSVKGRFTISRDNAKNTVYLQMNSLKPEDTAVYYCNATAGHGYYYWGQGTQVTVSS”, “high polyreactivity”.
To “QVQLVESGGGLVQAGGSLRLSCAASGSTFWKYVMGWYRQAPGKVRELVAAITSRGGSTYADSVKGRFTISRDNAKNTVYLQMNSLKPEDTAVYYCAATKFWYYGYDYWGQGTQVTVSS” belongs “low polyreactivity”; to “QVQLVESGGGLVQAGGSLRLSCAASGSTFWLNAMGWYRPAPGKEWEFVAAITVRGGSTYYADSVKGRFTISRDNAKNTVYLQMNSLKPEDTAVYYCNKGSIEKTEMEYWGQGTQVTVSS”, “low polyreactivity”; to “QVQLVESGGGLVQAGGSLRLSCAASGSTFWLYAMGWYRQAPGKERELVAAISSTGNTNYADSVKGRFTISRDNAKNTVYLQMNSLKPEDTAVYYCAADSWDYDSRMDYWGQGTQVTVSS”, “low polyreactivity”.
For the sequence “QVQLVESGGGLVQAGGSLRLSCAASGSTFWNNAMGWYRQAPGKERELVAVINSSGGSTYYADSVKGRFTISRDNAKNTVYLQMNSLKPEDTAVYYCNADATDSYPEKDEHDSWGQGTQVTVSS”, the “polyreactivity (PSR sort gate)” value was “low polyreactivity”.
